This passage reports Relative binding compared to control, fold S100b binding activity compared to control bioreactor R39 and fold increase in S100b binding activity compared to baseline bioreactor R39 results from US20120039908A1.

This assay has as its target T1, S100b protein (Cat. No. 559290, Calbiochem).
T1 sequence (P04271 2-92, species assumed, looked up): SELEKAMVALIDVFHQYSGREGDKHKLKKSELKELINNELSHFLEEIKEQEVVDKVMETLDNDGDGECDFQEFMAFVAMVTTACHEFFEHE
Briefly: ELISA, S100b coated on plate; reference baseline bioreactor R39. (In an ELISA, binding on a coated surface is turned into a signal by an enzyme label.)

Sequence of RAGE-Fc fusion protein from bioreactor R79 (Ex Cell 325 PF CHO, 2-deoxy-D-glucose 1 g/L at day 7; 9), Day 12 (chain): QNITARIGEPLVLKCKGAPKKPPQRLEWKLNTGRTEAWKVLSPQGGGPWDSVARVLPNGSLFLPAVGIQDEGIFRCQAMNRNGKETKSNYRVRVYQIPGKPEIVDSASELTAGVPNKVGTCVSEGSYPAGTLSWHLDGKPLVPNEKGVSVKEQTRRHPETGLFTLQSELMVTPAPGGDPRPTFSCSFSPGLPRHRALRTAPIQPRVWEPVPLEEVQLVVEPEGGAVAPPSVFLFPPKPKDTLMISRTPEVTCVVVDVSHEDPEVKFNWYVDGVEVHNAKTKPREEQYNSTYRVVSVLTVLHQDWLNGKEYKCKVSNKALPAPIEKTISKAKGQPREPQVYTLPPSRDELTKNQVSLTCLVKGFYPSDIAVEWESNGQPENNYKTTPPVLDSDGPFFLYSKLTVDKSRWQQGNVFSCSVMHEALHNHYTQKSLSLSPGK
Sequence of RAGE-Fc fusion protein from bioreactor R80 (CD CHO, 2-deoxy-D-glucose 1 g/L at day 7; 9), Day 14 (chain): as above
Sequence of RAGE-Fc fusion protein from bioreactor R66 (CD OptiCHO lipid-free, 2-deoxy-D-glucose 1 g/L at day 9), Day 12 (chain): as above
Sequence of RAGE-Fc fusion protein from bioreactor R66 (CD OptiCHO lipid-free, 2-deoxy-D-glucose 1 g/L at day 9), Day 14 (chain): as above
Sequence of RAGE-Fc fusion protein from bioreactor R39 (control, no 2-deoxy-D-glucose), Day 12 (chain): as above
Sequence of RAGE-Fc fusion protein from bioreactor R80 (CD CHO, 2-deoxy-D-glucose 1 g/L at day 7; 9), Day 12 (chain): as above
Sequence of RAGE-Fc fusion protein from bioreactor R53 (2-deoxy-D-glucose 1 g/L at day 9; 11), Day 12 (chain): as above
Sequence of RAGE-Fc fusion protein from bioreactor R53 (2-deoxy-D-glucose 1 g/L at day 9; 11), Day 10 (chain): as above
Sequence of RAGE-Fc fusion protein from bioreactor R79 (Ex Cell 325 PF CHO, 2-deoxy-D-glucose 1 g/L at day 7; 9), Day 13 (chain): as above

As to “RAGE-Fc fusion protein from bioreactor R80 (CD CHO, 2-deoxy-D-glucose 1 g/L at day 7; 9), Day 14”, the Relative binding compared to control came out at 8080% and the fold S100b binding activity compared to control bioreactor R39 is 80 fold. On to “RAGE-Fc fusion protein from bioreactor R79 (Ex Cell 325 PF CHO, 2-deoxy-D-glucose 1 g/L at day 7; 9), Day 12”, for which the Relative binding compared to control was determined as 527% and the fold increase in S100b binding activity compared to baseline bioreactor R39 worked out at 5 fold. The substance “RAGE-Fc fusion protein from bioreactor R66 (CD OptiCHO lipid-free, 2-deoxy-D-glucose 1 g/L at day 9), Day 14” showed a Relative binding compared to control of 3520%. Still for that read-out and setting: to “RAGE-Fc fusion protein from bioreactor R53 (2-deoxy-D-glucose 1 g/L at day 9; 11), Day 12” belongs 1520%.

“RAGE-Fc fusion protein from bioreactor R39 (control, no 2-deoxy-D-glucose), Day 12” showed a Relative binding compared to control of 100%. Still for that read-out and setting: next, “RAGE-Fc fusion protein from bioreactor R80 (CD CHO, 2-deoxy-D-glucose 1 g/L at day 7; 9), Day 12”: 1630%. Consider “RAGE-Fc fusion protein from bioreactor R66 (CD OptiCHO lipid-free, 2-deoxy-D-glucose 1 g/L at day 9), Day 12”, for which the Relative binding compared to control worked out at 3250% and the fold increase in S100b binding activity compared to baseline bioreactor R39 amounted to 32 fold. As for “RAGE-Fc fusion protein from bioreactor R79 (Ex Cell 325 PF CHO, 2-deoxy-D-glucose 1 g/L at day 7; 9), Day 13”, the Relative binding compared to control is 2960%. On to “RAGE-Fc fusion protein from bioreactor R53 (2-deoxy-D-glucose 1 g/L at day 9; 11), Day 10”, for which the Relative binding compared to control turned out to be 296%.
